Here are results for three molecules from patent US20230151091A1 (NEW YORK UNIVERSITY, published 2023).

The labels stand for the following.
T1: mouse MuSK, endogenous (C2C12 myotubes; neuromuscular synapses of mice) (mouse, UniProt Q61006 22-868)
T1 sequence (looked up): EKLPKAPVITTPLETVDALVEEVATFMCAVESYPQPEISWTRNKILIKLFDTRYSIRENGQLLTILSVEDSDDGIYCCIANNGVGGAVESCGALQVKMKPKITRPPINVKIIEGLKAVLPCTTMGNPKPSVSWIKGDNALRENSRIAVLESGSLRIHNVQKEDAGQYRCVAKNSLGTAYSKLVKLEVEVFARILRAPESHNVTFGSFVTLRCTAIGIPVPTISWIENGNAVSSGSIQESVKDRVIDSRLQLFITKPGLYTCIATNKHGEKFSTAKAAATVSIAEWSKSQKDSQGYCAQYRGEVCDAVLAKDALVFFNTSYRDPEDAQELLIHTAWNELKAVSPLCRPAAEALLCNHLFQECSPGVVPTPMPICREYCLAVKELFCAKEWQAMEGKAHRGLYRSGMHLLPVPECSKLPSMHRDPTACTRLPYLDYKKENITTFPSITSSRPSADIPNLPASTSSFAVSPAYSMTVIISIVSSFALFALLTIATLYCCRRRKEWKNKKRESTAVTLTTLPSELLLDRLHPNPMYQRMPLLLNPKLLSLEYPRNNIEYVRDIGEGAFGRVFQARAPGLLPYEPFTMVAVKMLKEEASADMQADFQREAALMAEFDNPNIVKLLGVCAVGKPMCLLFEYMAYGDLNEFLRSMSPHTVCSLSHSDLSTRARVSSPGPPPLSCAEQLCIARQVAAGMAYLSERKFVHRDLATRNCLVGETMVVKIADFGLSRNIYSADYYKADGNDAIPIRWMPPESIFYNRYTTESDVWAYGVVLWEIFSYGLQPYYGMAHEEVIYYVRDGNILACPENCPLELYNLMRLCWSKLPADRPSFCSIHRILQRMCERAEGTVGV

T2: mouse MuSK (mouse, UniProt Q61006 22-494, limits assumed)
T2 construct: Coated on ELISA plates or on the Biacore chip; also called full length mouse MuSK; mouse MuSK (in house produced in HEK293 cells)
T2 sequence (looked up): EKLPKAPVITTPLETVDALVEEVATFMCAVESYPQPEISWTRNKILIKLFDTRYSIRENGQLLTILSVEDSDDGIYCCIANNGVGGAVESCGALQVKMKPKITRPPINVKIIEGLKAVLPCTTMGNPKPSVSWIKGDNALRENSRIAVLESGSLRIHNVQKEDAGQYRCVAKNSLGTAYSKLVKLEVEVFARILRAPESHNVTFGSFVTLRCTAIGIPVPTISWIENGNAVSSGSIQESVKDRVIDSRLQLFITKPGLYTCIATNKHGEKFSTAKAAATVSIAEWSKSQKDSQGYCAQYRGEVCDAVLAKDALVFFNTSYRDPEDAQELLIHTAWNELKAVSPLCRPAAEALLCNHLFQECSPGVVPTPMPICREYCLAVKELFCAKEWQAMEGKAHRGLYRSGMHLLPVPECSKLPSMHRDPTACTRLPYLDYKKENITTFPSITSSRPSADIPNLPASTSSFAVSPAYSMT

T3: rat MuSK (rat, UniProt Q62838 22-494, limits assumed)
T3 construct: Coated on Biacore chip (200RU) or ELISA plate
T3 sequence (looked up): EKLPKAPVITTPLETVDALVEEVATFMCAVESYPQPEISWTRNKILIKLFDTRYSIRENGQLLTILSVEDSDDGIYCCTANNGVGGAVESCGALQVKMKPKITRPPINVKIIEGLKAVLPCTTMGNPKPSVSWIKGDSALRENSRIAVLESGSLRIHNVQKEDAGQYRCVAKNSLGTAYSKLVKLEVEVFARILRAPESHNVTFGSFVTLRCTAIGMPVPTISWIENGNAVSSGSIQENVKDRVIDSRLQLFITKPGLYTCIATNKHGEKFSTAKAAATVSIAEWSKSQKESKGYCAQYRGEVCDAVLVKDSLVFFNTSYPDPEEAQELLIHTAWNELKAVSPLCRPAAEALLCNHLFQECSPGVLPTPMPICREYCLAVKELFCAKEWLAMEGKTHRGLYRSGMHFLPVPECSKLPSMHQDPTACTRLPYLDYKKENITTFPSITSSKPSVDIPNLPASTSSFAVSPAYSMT

B1: 3B2g1m4 (antibody, human IgG1, V domains shown)
VH: EVQLLESGGGLVQPGGSLRLSCAASGFTFSDYGMSWVRQAPGKGLEWVSAIPWQGGSTYYKESVKGRFTISRDNSKNTLYLQMNSLRAEDTAVYYCAKRSGRIAFGALDAWGQGTLVTVSS
VL: QTVVTQEPSFSVSPGGTVTLTCGLSSGSVTSSNYPDWYQQTPGQAPRTLIYSTDSRHSGVPDRFSGSILGNKAALTITGAQADDESDYYCGLYMYSGSKNYVFGGGTKLTVL
notes: human IgG1-LALA backbone; produced in HEK293 cells
B2: 3B2g2m4 (antibody, human IgG1, V domains shown)
VH: B1 VH
VL: B1 VL with M94S
notes: as for B1
B3: 3B2g2m2 (antibody, human IgG1, V domains shown)
VH: B1 VH with W53G, Q54S
VL: B1 VL with M94S
notes: as for B1

Positions count from the first letter of the chain named.

The term koff denotes a measure of how fast the partners let go of each other. A word on the kon: it is a measure of how fast the partners come together.

T4 sequence (A0A2K5USF6 entry or part of it): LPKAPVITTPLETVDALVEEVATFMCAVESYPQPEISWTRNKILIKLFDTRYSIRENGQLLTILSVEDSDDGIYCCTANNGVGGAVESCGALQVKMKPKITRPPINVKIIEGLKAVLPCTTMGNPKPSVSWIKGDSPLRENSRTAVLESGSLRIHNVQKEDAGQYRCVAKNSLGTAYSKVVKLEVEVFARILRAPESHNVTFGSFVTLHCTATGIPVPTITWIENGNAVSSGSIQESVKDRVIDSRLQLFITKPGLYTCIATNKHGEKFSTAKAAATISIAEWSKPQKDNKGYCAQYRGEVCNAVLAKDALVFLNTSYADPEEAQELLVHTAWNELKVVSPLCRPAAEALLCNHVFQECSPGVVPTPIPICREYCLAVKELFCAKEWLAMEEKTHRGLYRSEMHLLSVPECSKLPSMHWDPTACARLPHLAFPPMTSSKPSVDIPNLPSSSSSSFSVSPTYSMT

The target of one experiment is T1, mouse MuSK, endogenous (C2C12 myotubes; …). The experiment in a line: cell-based or functional assay.
Consider B1, for which the “MuSK phosphorylation in C2C12 myotubes” value was ~58 % of 1 nM agrin.

Regarding B2, the “MuSK phosphorylation in C2C12 myotubes” value was ~58 % of 1 nM agrin.

On to B3, for which the “MuSK phosphorylation in C2C12 myotubes” value is ~80 % of 1 nM agrin.

The target of a further experiment is T4, cynomolgus monkey MuSK (cynomolgus monkey, UniProt A0A2K5USF6 24-487). The experiment in a line: Biacore, MuSK on chip, association pH 7.4, dissociation pH 5.5. Here is the method:
(§1) For affinity determination, a CMS chip was coated with cynomolgus monkey, rat and mouse MuSK (200RU) and 66.7 nM of antibody was applied and kinetic parameters calculated (Table 8). The following conclusions could be drawn: (1) 3B2g1m3 and 3B2g2m3 (m3 variants) show significant drop in affinity for MuSK for all species tested; (2) 3B2g1m2 and 3B2g2m2 (m2 variants) show some drop in affinity for MuSK; (3) 3B2g1m1, 3B2g2m1, 3B2g1m4, 3B2g2m4 (ml and m4 variants) show no drop in affinity for MuSK for all species tested; and (4) for all clones there is no difference between g1 and g2 variants (VL methionine versus serine in CDR3).
(§2) In order to study pH dependent binding of our antibodies to MuSK, the same Biacore was used as above, but now dissociation was done at pH 5.5 instead of pH 7.4. […] The following conclusions could be drawn for the different variants: (1) 3B2g1m3 and 3B2g2m3 (m3 variants) show significant drop in affinity for MuSK for all species tested; (2) 3B2g1m2 and 3B2g2m2 (m2 variants) show some drop in affinity for MuSK; (3) 3B2g1m1, 3B2g2m1, 3B2g1m4, 3B2g2m4 (m1 and m4 variants) show no drop in affinity for MuSK for all species tested; and (4) for all clones there is no difference between g1 and g2 variants (VL methionine versus serine in CDR3).
On the technique in general: In SPR one partner is held on a chip, and binding of the other changes the refractive index at the surface.
The molecule B1 gave an R0 of 146 RU, a dissociation rate constant (koff) of 0.00261 s⁻¹ and a kon of 680000 M⁻¹ s⁻¹.

Regarding B2, the R0 is 148 RU, the dissociation rate constant (koff) is 0.00256 s⁻¹ and the kon amounted to 750000 M⁻¹ s⁻¹.

Molecule B3 displayed an R0 of 146 RU, a koff of 0.00326 s⁻¹ and a kon of 860000 M⁻¹ s⁻¹.

For the next experiment, the target named is T2, mouse MuSK. The description is as above. Here is the method: as §1, §2
Take B1: the R0 is 191 RU, the koff was 0.00304 s⁻¹ and the kon was determined as 980000 M⁻¹ s⁻¹.

B2 showed an R0 of 191 RU, a koff of 0.003 s⁻¹ and a kon of 1.04e+06 M⁻¹ s⁻¹.

For B3, the R0 is 153 RU, the off-rate constant (koff) was found to be 0.0882 s⁻¹ and the kon was 210000 M⁻¹ s⁻¹.

A further experiment addresses T3, rat MuSK. The description is as above. Here is the method: as §1, §2
In the case of B1, the R0 was found to be 171 RU, the koff amounted to 0.00558 s⁻¹ and the association rate constant (kon) stood at 950000 M⁻¹ s⁻¹.

Turning to B2, the R0 was determined as 172 RU, the dissociation rate constant (koff) worked out at 0.00538 s⁻¹ and the kon is 1.02e+06 M⁻¹ s⁻¹.

B3 came in with an R0 of 145 RU, a koff of 0.0973 s⁻¹ and a kon of 40000 M⁻¹ s⁻¹.

For the next experiment, the target named is T4, cynomolgus monkey MuSK. The experiment in a line: Biacore, MuSK on chip (200RU), 66.7 nM mAb, dissociation pH 7.4. Here is the method: as §1
In turn, B1 yielded an R0 of 140 RU, an off-rate constant (koff) of 0.00086 s⁻¹ and a kon of 730000 M⁻¹ s⁻¹.

The molecule B2 came in with an R0 of 142 RU, an off-rate (koff) of 0.00088 s⁻¹ and an association rate constant (kon) of 790000 M⁻¹ s⁻¹.

For B3, the R0 turned out to be 136 RU, the off-rate (koff) turned out to be 0.00179 s⁻¹ and the kon was 890000 M⁻¹ s⁻¹.

A further experiment concerns the target T2, mouse MuSK. Described as above. Here is the method:
as §1
Consider B1, for which the R0 turned out to be 192 RU, the koff was found to be 0.00065 s⁻¹ and the kon was found to be 1.08e+06 M⁻¹ s⁻¹.

Turning to B2, the R0 was determined as 193 RU, the off-rate (koff) worked out at 0.00064 s⁻¹ and the kon worked out at 1.15e+06 M⁻¹ s⁻¹.

For the molecule B3, the R0 came out at 158 RU, the koff came out at 0.00231 s⁻¹ and the kon worked out at 1.71e+06 M⁻¹ s⁻¹.

For another experiment, the target named is T3, rat MuSK. The description is as above. Here is the method:
as §1
The molecule B1 yielded an R0 of 155 RU, a koff of 0.00192 s⁻¹ and an association rate constant (kon) of 1.12e+06 M⁻¹ s⁻¹.

In turn, B2 gave an R0 of 158 RU, a koff of 0.00196 s⁻¹ and an on-rate constant (kon) of 1.19e+06 M⁻¹ s⁻¹.

B3 returned an R0 of 130 RU, a dissociation rate constant (koff) of 0.00281 s⁻¹ and a kon of 1.56e+06 M⁻¹ s⁻¹.
